Results as given in patent US20060240570A1 (AXIS SHIELD ASA, published 2006).
Positions of bridges follow the written chain, without caps; N, C: chain ends. No end group written: not given here.

T1: human TC with the common polymorphism P259R (human, UniProt P20062 19-427)
T1 sequence: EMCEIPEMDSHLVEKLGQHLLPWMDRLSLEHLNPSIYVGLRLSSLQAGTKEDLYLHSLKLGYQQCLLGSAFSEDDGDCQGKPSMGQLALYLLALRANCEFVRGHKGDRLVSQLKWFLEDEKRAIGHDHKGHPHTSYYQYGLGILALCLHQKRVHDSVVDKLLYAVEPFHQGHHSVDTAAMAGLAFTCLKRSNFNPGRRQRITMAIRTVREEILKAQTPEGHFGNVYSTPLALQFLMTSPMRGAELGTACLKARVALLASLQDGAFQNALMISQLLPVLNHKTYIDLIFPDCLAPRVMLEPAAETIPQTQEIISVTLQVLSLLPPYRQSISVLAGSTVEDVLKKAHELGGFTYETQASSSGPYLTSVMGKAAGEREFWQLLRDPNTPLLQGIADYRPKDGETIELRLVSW

T2: human holotranscobalamin (holoTC) (human, UniProt P20062 19-427, cobalamin bound (non-covalent complex))
T2 construct: Recombinant human holoTC in the SPR work; also called holo-TCII
T2 chain: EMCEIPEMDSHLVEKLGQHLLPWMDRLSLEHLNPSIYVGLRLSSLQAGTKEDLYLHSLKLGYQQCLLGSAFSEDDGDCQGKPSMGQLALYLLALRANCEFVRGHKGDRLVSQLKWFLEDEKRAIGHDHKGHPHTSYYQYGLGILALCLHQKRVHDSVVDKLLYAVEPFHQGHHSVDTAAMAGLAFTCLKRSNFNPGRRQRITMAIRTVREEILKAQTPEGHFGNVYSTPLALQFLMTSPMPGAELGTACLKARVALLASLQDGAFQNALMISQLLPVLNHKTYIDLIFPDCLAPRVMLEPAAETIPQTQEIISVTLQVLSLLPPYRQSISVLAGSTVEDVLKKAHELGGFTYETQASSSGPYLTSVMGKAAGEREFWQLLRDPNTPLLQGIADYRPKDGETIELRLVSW


Legend:
[1] = biological target: T1, human TC with the common polymorphism …; assay: method not detailed
[2] = biological target: T2, human holotranscobalamin (holoTC); assay: SPR (Biacore); holoTC against apoTC
[3] = biological target: T3, monoclonal antibody 3C4; assay: phage ELISA, 10^9 phagemid, wells coated with mAb 3C4
T3 construct: Mouse IgG1, ECACC 02110741; also called mAb 3C4; 3C4 (3CY)
T3 sequence (VH, as listed by the source, chain 1 of 2): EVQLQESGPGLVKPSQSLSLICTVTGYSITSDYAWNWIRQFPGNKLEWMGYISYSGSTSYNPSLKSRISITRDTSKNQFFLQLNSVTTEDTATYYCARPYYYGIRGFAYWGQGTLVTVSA
T3 sequence (VL, as listed by the source, chain 2 of 2): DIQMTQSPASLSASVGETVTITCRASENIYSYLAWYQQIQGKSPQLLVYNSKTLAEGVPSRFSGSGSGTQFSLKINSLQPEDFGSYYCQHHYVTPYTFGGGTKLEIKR
Description: Microtitre plates were coated with 100 μL, 1 μg/mL mAb 3C4 or unrelated control antibody in PBS over night at 4 C. Remaining binding sites were blocked with 20 mg/mL bovine serum albumin (BSA) in PBS for 1 h. Some wells were only coated with BSA. Monoclonal packaged phagemids were added at a concentration of 10¹⁰ to 10⁸ cfu per well in PBS and incubated for 1 h. Preparations of packaged phagemids were centrifuged to remove aggregates. Wells were washed 6 times with PBS containing 0.1% Tween-20 and 3 times with PBS. For detection of bound phages 100 μL of horse-radish peroxidase (HRP) conjugated […] antibody (e.g. Pharmacia) diluted 1/5000 in PBS was added to each well and incubated for 1 h at ambient temperature. ELISA plates were washed 5 times with PBS containing 0.1%
Tween-20 and 3 times with PBS. The chromogenic substrate o-Phenyldiamine in citric acid, pH 4.0 supplemented with H₂O₂ was added and the color generating reaction was stopped after 2-5 min by addition of […].

Row | Binder | binding result [1] | holo/apo Specificity (-fold) [2] | ELISA (absorbance units) [3]
1 | monoclonal antibody TC2 (antibody, V domains shown, Mouse IgG1, ECACC 02110742; also called mAb TC2) VH: QVQLKQSGPGLLQPSQSLSITCTVSGFSLTYYGVHWVRQSPVKGLEWLGVIWSGGDTDYDTTFISRLSISKDNSKGQVFFKMTSLQTDDTAIYYCARGRTYGIHFDYWGQGTTLTVSS VL: DIVMSQSPSSLAVSVGEKVTMSCKSSQSLFNSRTRKNYLAWYQQKPGQSPKVLIYWASTRESGVPDRFTGSGSGTDFTLTISSVQAEDLAIYYCKQFYDLWTFGGGTKLEIKR | binds | 1 fold | 
2 | CSGLYPWDYFMCS (disulfide 1-12 (inferred); also: displayed on phagemid) [phagemid CS1-29p, displayed peptide CSGLYPWDYFMCS] |  |  | 0.136 absorbance units
